According to patent US20240301373, “FANZORS ARE RNA-GUIDED NUCLEASES ENCODED IN EUKARYOTIC GENOMES” (Massachusetts Institute of Technology, published 2024):

Legend:
BaFNuc = target: T1, BaFNuc (Batillaria attramentaria); assay: pulldown; co-purified fRNA sequenced
T1 chain: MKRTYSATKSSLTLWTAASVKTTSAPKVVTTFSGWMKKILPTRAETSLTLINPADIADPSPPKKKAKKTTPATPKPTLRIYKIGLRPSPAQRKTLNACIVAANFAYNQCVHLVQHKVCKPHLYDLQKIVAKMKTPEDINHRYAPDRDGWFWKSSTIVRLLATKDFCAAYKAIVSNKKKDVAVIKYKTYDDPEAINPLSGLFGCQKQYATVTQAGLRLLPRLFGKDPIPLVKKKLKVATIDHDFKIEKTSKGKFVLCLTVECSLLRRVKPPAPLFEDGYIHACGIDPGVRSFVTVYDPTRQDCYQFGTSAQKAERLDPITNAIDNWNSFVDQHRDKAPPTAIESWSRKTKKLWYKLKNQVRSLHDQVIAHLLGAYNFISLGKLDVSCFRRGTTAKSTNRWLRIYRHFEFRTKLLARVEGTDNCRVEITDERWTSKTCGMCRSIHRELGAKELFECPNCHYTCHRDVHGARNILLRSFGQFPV
Source text: (§1) This study sought to explore whether Fanzor2 proteins from diverse eukaryotes also are active RNA-guided nucleases. Three Fanzor2 representatives from three animals and a Fanzor1 representative from a plant were chosen for this study: 1) Fanzor2 from Aercenaria mercenaria (Venus clam, MmFNuc), 2) Fanzor2 from Dreissena polymorpha (Zebra mussel, DpFNuc), 3) Fanzor2 from Batillaria attramentaria (Japanese mud snail; BaFNuc), and 4) Fanzor1 from Klebsormidium nitens (freshwater green algae; KnFNuc) (FIG. 21A). […] Constructs for co-expression of the fRNA and Fanzor nuclease were cloned in a cell-free transcription/translation system, allowing for isolation of the resulting RNPs to study their fRNA sequences and cleavage activity (FIG. 21B). […] These fRNAs were highly structured with diverse structural motifs and domains (FIG. 28B).

[1] = target: T2, ApmFNuc (ApmHNuc, Isvmimi Fanzor2) (Acanthamoeba polyphaga mimivirus, UniProt Q5UPQ8 SEQ:1-520); assay: pulldown; co-purified fRNA identified by small RNA sequencing; details: tags: Strep tag; RNP co-expressed with fRNA in E. coli
T2 sequence: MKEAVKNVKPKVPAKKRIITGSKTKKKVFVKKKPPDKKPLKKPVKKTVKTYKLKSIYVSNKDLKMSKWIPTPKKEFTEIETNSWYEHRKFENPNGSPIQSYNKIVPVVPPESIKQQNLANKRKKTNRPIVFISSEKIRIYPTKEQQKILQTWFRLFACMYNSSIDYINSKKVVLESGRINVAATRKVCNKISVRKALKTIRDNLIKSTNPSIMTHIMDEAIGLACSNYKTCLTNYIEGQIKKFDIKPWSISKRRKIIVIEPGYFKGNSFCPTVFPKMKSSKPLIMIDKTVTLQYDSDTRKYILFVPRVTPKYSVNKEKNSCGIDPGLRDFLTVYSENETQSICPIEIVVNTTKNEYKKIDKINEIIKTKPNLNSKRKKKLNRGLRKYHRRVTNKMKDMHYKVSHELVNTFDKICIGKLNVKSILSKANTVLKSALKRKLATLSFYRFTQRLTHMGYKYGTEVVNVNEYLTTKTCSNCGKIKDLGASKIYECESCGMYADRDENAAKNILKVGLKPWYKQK

KnFNuc (Fanzor1) = target: T3, KnFNuc (Fanzor1) (Klebsormidium nitens); assay: pulldown; co-purified fRNA sequenced
T3 chain: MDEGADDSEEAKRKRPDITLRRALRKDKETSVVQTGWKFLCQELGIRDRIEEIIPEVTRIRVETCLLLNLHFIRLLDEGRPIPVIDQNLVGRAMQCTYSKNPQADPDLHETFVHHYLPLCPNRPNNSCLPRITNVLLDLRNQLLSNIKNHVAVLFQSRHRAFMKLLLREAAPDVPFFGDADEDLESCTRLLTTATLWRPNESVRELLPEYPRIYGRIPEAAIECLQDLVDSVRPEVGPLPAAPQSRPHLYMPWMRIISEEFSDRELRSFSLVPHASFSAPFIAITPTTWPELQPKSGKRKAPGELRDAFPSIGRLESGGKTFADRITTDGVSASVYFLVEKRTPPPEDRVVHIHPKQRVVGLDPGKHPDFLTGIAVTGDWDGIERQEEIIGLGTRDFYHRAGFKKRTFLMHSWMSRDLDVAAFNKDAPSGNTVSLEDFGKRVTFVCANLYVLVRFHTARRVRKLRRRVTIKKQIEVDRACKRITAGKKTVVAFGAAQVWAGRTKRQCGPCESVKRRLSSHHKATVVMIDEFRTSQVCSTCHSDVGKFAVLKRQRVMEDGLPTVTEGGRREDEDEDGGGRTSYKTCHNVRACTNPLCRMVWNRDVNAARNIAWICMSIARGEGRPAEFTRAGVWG
Source text: as §1

DpFNuc = target: T4, DpFNuc (Dreissena polymorpha); assay: pulldown; co-purified fRNA sequenced
T4 chain: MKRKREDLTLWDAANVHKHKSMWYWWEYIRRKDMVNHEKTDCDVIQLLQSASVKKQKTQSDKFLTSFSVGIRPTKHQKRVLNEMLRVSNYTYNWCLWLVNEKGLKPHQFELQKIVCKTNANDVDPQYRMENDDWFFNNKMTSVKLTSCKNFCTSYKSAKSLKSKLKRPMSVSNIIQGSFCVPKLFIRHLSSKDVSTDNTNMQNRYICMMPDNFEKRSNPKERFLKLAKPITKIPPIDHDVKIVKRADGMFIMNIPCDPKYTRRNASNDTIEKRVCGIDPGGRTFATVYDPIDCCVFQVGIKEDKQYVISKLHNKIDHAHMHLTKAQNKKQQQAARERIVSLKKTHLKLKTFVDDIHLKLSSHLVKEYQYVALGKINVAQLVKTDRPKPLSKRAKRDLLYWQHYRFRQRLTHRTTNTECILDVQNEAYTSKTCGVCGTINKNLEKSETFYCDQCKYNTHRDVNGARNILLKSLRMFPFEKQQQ
Source text: as §1

MmFNuc = target: T5, MmFNuc (Mercenaria mercenaria); assay: pulldown; co-purified fRNA sequenced
T5 chain: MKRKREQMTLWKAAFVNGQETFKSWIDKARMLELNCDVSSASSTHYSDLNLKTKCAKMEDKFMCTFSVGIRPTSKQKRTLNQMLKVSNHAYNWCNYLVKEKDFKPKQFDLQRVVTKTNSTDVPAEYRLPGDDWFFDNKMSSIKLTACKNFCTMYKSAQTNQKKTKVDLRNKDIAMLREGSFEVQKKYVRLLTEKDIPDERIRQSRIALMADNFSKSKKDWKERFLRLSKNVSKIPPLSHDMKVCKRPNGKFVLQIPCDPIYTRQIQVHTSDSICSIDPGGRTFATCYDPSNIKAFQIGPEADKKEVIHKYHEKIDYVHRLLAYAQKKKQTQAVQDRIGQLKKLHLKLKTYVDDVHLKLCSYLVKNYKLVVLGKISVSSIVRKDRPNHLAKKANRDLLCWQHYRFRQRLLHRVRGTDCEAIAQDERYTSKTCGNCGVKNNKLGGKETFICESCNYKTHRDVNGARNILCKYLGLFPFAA
Source text: as §1

B1: BaFNuc fRNA scaffold (ssRNA)
RNA: CGCUCGAGUGGAGGGAACUGACAACUGUAGAGUGGAGAUCACCGACGAACGCUGGACCUCAAAGACGUGUGGCAUGUGCAGAUCCAUCCACCGCGAACUUGGGGCAAAAGAACUAUUCGAGUGCCCCAACUGCCACUACACCUGCCACAGAGACGUGCACGGAGCUCGAAACAUCUUGCUGAGAAGCUUCGGACAGUUUCCAGUCUAGAAAAACACGAACUUUUUCCUUGGCCCAAGGAUUGCCAAACACCACUCAAAUCCUCGUUCAGGGGCCUCGAGUGGCUGGGCAUAUAUGGGUUA
B1: binds (BaFNuc).

B2: ApmFNuc fRNA scaffold (21 nt 3' guide appended) (ssRNA)
RNA: AAAAAUAGUCUAAUAAAAUCAGGGGUACAUUCCGCUAGUACUCCACCCUACGGGUUAAGCAAAUGAGAAUAUCGAAACGGUAUGCACAGGAUUCUUCGAGUGAUAAUCUUAGGAUGACUCACUAAGGAGAUGACUAAAGUGUAUCAUUCAAUAUUGUAUUGAACGGUAUUCUUCCAUAGAGAGUUGAUUUUUGGAGUAUCCAGAAAUAUCAACUUUUUAUGAGCGG
B2: binds [1].

B3: KnFNuc fRNA scaffold (ssRNA)
RNA: GGAGGAGGGAGGACAAGCUACAAGACGUGCCACAACGUGCGAGCGUGUACGAACCCGCUCUGUCGCAUGGUGUGGAAUAGAGACGUCAACGCAGCUCGUAACAUAGCUUGGAUCUGUAUGAGCAUAGUCAGAGGCGAGGGCAGGCCAGCGGAGUUCACGAGAGCAGGAAUGUGAGGAUGACUGAGAAUUAGUCGAAAGACAUAGCUGCCUAGAAACGAGUUCAUCUAGGCACUUCGGUGAGAAUCCGAGAUACGGCUGGGUACUGUGGCGAGUGUGCCAUUUUACUCUGAACAGACUGUA
B3: binds (KnFNuc (Fanzor1)).

B4: DpFNuc fRNA scaffold (ssRNA)
RNA: AUUGGAUGUUCAAAAUGAAGCAUACACUUCGAAGACGUGUGGAGUGUGUGGAACAAUAAACAAAAAUCUAGAAAAGAGUGAAACAUUUUAUUGCGAUAACUGCAAAUAUAACACACACAGAGACGUUAAUGGUGCUAGAAAUAUUUUGCUAAAAUCGUUGCGCAUGUUUCCAUUUGUCAAUUCGCAGUUAUAAUUACUCUGUAACAAUUAGGUCGAUCCAUCCUAAAUUCGAAAGUCCAUUGCUACGAGACUUUGCGUAUGCUUAGUCCAGGGCAAUUUUCUGCCGAAUGAAAUGGGUUA
B4: binds (DpFNuc).

B5: MmFNuc fRNA scaffold (ssRNA)
RNA: ACUUCCAAGACCUGUGGUAAUUGCGGUGUGAAGAACAACAAACUUGGUGGAAAGGAAACGUUUACUUGUGAGUGUUGCAAUUACAAAACUCAUCGAGACGUCAACGGAGCGAGAAACAUUCUGUGCAAAUACUUGAAACUUUUUCCAUUCGCAGCAUAACGAAAGAAACUGACAAUCGAUUUUUUCGGGUUCGAUUCUAUCCCACUUGACUCAAAGAGUCAGAGGGCUCGAAUACAUUUUCUGCACAGGUUUUGCUAAUGCAAGAUCUGGGGCAAGAAUGUGUUCGGGUCAAAUGAGUUA
B5: binds (MmFNuc).
